Molecular target: the molecule itself
Experiment: SEC; Superdex 75, 200 μl of 20-40 μM protein, 150 mM NaCl, 10 mM sodium phosphate, 0.03% NaN3, pH 7.4, 0.5 ml/min

B1: EK2 de novo polypeptide (AEEAKKA repeats) (other)
chain: SAEEAKKAAEEAKKAAEEAKKAAEEAKKAAEEAKKAAEEAKKAAEEAKKAAEEAKKAAEEAKKAAEEAKKAAEEAKKAAEEAKKAAEEAKKAAEEAKW
Question: With B1 as the protein, how does the “stoichiometry N” value read?
Answer: The value was about 2.
